Target: FXR1 (rFXR1) (human, UniProt P51114 1-621)
Experiment: EMSA; 1 ug E. coli tRNA, 1.5 mM EDTA; EMSA: 0.5 pmol 32P-miRNA in 20 ul, 20 mM Na-HEPES pH 7.0, 150 mM NaCl, 0.75 mM DTT, 1.5 mM EDTA, 10% glycerol, 1 ug E. coli tRNA, 37 C 30 min; 12% native PAGE
Conditions: protein: recombinant, His-tag (pET28a), thrombin-cleaved in final dialysis, single strand

Chain of FXR1 (rFXR1) (P51114 whole entry): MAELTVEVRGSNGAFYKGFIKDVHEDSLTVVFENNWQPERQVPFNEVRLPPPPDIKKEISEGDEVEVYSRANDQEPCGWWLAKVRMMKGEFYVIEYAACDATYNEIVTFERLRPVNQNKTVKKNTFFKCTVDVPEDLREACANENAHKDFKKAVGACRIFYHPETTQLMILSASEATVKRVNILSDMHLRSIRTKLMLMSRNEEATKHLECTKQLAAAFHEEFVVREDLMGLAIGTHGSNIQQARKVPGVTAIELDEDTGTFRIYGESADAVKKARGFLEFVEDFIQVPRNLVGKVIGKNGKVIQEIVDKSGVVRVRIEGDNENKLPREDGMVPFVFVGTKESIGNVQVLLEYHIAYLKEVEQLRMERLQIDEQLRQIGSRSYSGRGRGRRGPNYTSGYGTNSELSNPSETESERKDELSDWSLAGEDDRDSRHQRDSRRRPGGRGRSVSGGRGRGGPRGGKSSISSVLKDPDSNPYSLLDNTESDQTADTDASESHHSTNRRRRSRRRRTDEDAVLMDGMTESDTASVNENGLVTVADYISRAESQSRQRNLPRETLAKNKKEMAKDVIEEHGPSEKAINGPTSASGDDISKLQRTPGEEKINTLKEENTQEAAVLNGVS

Binder | binding result (label: 5'-32P) | binding result (label: 32P)
CAGUGCAAUAGUAUUGUCAAAGC (ssRNA) [miR301a-3p] | binds | –
UUCCCUUUGUCAUCCUAUGCCU (ssRNA) [miR204-5p] | – | no binding

— paper PMC6986764, “RNA binding protein FXR1-miR301a-3p axis contributes to p21WAF1 degradation in oral cancer”
